Read-outs that look alike come from different tables or passages of the source.
How the values were obtained:
[1] = target: single-ring α7 mutant α7^SR (S96D, S100D, F102R, Y104R) (human); test: native MS; α4 or α6 (4 μM monomers) mixed with α7^SR (4 μM heptamer), 20 °C, 1 h; α2 incubated with α7^SR before buffer exchange; 150 mM ammonium acetate
[2] = target: monomeric α7 mutant α7* (N-terminal residues 1-22 replaced with a hexahistidine-containing segment) (human) (UniProt P25788); test: SEC; α1–α6 (20 μM monomers) mixed with an equimolar amount of α7*, 20 °C, 1 h; SDS-PAGE (CBB) of the purified complexes
[3] = target: human proteasome α7 subunit, wild type (human) (UniProt P25788); test: native MS; single proteins, 5–20 μM monomers, 150 mM ammonium acetate (pH 6.8–8.0), nanoflow electrospray
[4] = target: single-ring α7 mutant α7^SR (S96D, S100D, F102R, Y104R) (human); test: atomic force microscopy; α7^SR alone (Figure S2); height of the ring
[5] = target: single-ring α7 mutant α7^SR (S96D, S100D, F102R, Y104R) (human); test: native MS; single proteins, 5–20 μM monomers, 150 mM ammonium acetate (pH 6.8–8.0), nanoflow electrospray
[6] = target: single-ring α7 mutant α7^SR (S96D, S100D, F102R, Y104R) (human); test: as above; remark: listed apart in the source
[7] = target: human proteasome α7 subunit, wild type (human) (UniProt P25788); test: SEC; wild-type α7 in the presence of α1–α6 or α7* (20 μM monomers); loss of the tetradecamer peak
[8] = target: human proteasome α6 subunit, short isoform (human) (UniProt P25786); test: native MS; single proteins, 5–20 μM monomers, 150 mM ammonium acetate (pH 6.8–8.0), nanoflow electrospray
[9] = target: human proteasome α7 subunit, wild type (human) (UniProt P25788); test: native MS; α4 or α6 (4 μM monomers) mixed with α7 (2 μM tetradecamer), 20 °C, 1 h, 150 mM ammonium acetate
[10] = target: human proteasome α7 subunit, wild type (human) (UniProt P25788); test: as above; remark: listed apart in the source

human proteasome α7 subunit, wild type (human), sequence (P25788 whole entry, canonical isoform): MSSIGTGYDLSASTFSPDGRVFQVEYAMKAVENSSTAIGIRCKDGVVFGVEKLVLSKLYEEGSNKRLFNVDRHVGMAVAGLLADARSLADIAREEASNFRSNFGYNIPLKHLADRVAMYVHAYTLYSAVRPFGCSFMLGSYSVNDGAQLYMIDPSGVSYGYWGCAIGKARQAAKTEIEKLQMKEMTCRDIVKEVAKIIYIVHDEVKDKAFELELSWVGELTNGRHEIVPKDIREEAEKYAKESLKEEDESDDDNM
human proteasome α6 subunit, short isoform, sequence (P25786 whole entry, canonical isoform): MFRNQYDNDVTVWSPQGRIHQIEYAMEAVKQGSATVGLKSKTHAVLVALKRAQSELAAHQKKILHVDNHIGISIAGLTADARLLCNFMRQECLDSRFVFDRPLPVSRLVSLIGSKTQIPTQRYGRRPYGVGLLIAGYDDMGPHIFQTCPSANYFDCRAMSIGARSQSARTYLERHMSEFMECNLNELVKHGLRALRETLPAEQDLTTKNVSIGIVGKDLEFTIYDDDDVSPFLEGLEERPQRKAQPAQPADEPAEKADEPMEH
human proteasome α4 subunit, sequence (O14818 whole entry): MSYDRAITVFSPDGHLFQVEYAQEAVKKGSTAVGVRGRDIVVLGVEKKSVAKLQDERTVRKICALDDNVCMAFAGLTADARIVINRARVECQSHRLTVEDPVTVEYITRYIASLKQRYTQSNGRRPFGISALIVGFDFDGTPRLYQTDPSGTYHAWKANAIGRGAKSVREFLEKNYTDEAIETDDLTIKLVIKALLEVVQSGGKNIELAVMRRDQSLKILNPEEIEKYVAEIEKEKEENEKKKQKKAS
human proteasome α7 subunit, wild type, sequence (P25788 whole entry): as the sequence (P25788 whole entry, canonical isoform) above
human proteasome α2 subunit, sequence (P25787 whole entry): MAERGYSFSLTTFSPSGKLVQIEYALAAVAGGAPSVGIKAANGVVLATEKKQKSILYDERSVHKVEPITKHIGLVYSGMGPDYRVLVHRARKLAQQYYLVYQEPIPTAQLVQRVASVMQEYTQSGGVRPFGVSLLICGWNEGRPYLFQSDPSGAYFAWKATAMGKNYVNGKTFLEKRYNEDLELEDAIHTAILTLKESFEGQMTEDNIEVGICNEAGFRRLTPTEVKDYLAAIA

human proteasome α2 subunit (from UniProt P25787 1-234) (natural protein)
stoichiometry N (α7^SR subunits per α2) [1]: 7

human proteasome α4 subunit (from UniProt O14818 1-248) (natural protein)
stoichiometry N [2]: 1.2 α7· per α4 | stoichiometry N (α7^SR subunits per α4) [1]: 7

human proteasome α7 subunit, wild type (from UniProt P25788 1-255) (natural protein)
stoichiometry N [3]: 14

single-ring α7 mutant α7^SR (S96D, S100D, F102R, Y104R) (natural protein)
stoichiometry N [4]: 7 | stoichiometry N [5]: 7 | stoichiometry N [6]: 14

human proteasome α6 subunit, short isoform (from UniProt P25786 1-263) (natural protein)
percent of the α7 tetradecamer disrupted into smaller complexes [7]: 50% | stoichiometry N [8]: 2 | stoichiometry N (α7 subunits per α6) [9]: 14 | stoichiometry N (α7 subunits per α6) [10]: 7 | stoichiometry N (α7^SR subunits per α6) [1]: 7

Source: article PMC6539845
